Measured values as given in patent US20200255474.

B1: recombinant TTK (protein)
chain: MESEDLSGRELTIDSIMNKVRDIKNKFKNEDLTDELSLNKISADTTDNSGTVNQIMMMANNPEDWLSLLLKLEKNSVPLSDALLNKLIGRYSQAIEALPPDKYGQNESFARIQVRFAELKAIQEPDDARDYFQMARANCKKFAFVHISFAQFELSQGNVKKSKQLLQKAVERGAVPLEMLEIALRNLNLQKKQLLSEEEKKNLSASTVLTAQESFSGSLGHLQNRNNSCDSRGQTTKARFLYGENMPPQDAEIGYRNSLRQTNKTKQSCPFGRVPVNLLNSPDCDVKTDDSVVPCFMKRQTSRSECRDLVVPGSKPSGNDSCELRNLKSVQNSHFKEPLVSDEKSSELIITDSITLKNKTESSLLAKLEETKEYQEPEVPESNQKQWQSKRKSECINQNPAASSNHWQIPELARKVNTEQKHTTFEQPVFSVSKQSPPISTSKWFDPKSICKTPSSNTLDDYMSCFRTPVVKNDFPPACQLSTPYGQPACFQQQQHQILATPLQNLQVLASSSANECISVKGRIYSILKQIGSGGSSKVFQVLNEKKQIYAIKYVNLEEADNQTLDSYRNEIAYLNKLQQHSDKIIRLYDYEITDQYIYMVMECGNIDLNSWLKKKKSIDPWERKSYWKNMLEAVHTIHQHGIVHSDLKPANFLIVDGMLKLIDFGIANQMQPDTTSVVKDSQVGTVNYMPPEAIKDMSSSRENGKSKSKISPKSDVWSLGCILYYMTYGKTPFQQIINQISKLHAIIDPNHEIEFPDIPEKDLQDVLKCCLKRDPKQRISIPELLAHPYVQIQTHPVNQMAKGTTEEMKYVLGQLVGLNSPNSILKAAKTLYEHYSGGESHNSSSSKTFEKKRGKK
B2: recombinant MK5 (protein)
chain: MSEESDMDKAIKETSILEEYSINWTQKLGAGISGPVRVCVKKSTQERFALKILLDRPKARNEVRLHMMCATHPNIVQIIEVFANSVQFPHESSPRARLLIVMEMMEGGELFHRISQHRHFTEKQASQVTKQIALALRHCHLLNIAHRDLKPENLLFKDNSLDAPVKLCDFGFAKIDQGDLMTPQFTPYYVAPQVLEAQRRHQKEKSGIIPTSPTPYTYNKSCDLWSLGVIIYVMLCGYPPFYSKHHSRTIPKDMRRKIMTGSFEFPEEEWSQISEMAKDVVRKLLKVKPEERLTIEGVLDHPWLNSTEALDNVLPSAQLMMDKAVVAGIQQAHAEQLANMRIQDLKVSLKPLHSVNNPILRKRKLLGTKPKDSVYIHDHENGAEDSNVALEKLRDVIAQCILPQAGKGENEDEKLNEVMQEAWKYNRECKLLRDTLQSFSWNGRGFTDKVDRLKLAEIVKQVIEEQTTSHESQ

Biological target: recombinant PHB2
Sequence (chain, as listed by the source): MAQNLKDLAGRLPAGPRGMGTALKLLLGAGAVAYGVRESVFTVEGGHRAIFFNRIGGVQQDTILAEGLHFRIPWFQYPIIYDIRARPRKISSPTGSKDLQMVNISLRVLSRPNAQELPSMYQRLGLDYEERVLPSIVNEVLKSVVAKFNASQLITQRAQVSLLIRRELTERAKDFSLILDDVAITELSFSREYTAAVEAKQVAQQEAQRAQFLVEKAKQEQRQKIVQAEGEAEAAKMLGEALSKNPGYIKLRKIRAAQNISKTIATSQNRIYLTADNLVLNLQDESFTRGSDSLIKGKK

| Protein | phosphorylation of PHB2 (Phos-tag SDS-PAGE), molar ratio PHB2:TTK=1:2 or greater | phosphorylation of PHB2 (Phos-tag SDS-PAGE), molar ratio TTK:PHB2 1:1 | phosphorylation of PHB2 (Phos-tag SDS-PAGE), molar ratio PHB2:MK5=1:0.25 | phosphorylation of PHB2 (Phos-tag SDS-PAGE), molar ratio PHB2:MK=1:2 or more |
| --- | --- | --- | --- | --- |
| B1 | a band for 75% phosphorylation was clearly detected | 28% phosphorylation |  |  |
| B2 |  |  | 6.5% phosphorylation | a band for 75% phosphorylation was detected |
